From the RNAGym collection of RNA variant scans (doi:10.1021/acssynbio.7b00057) come the findings set out here.

The labels stand for the following.
B1: Pistol ribozyme (parent)
chain: GGGUCGUUGUUCCAUAAUCGCGUGGAUAUGGCACGCAAGUUUCUACCGGGCACCGUAAAUGUCCGACUGGAGCCGUUCGGGCGGCUAUAAACAGACCUCAGGCCCGAAGCGUGGCGGCACCUGCCGCCGGUGGUAAAAAAGAUCGGAAGAGCACACGUCU

In the data set the parent is B1. The data set is described as follows: aptazyme ON/OFF ratio, guanine; higher = stronger switching; co-transcriptional cleavage with and without guanine.
As for U7C U8A G9U U10A U11G C12U C13G, the “aptazyme ON/OFF ratio” value stood at 1.16. On to U7G U8G G9C U10A U11G C12G C13A, for which the “aptazyme ON/OFF ratio” value worked out at 1.1. For U7G U8G G9C U10G U11A C12U C13G the value was 1.1. For U8G G9U U10G U11G C12U C13A the value was 1.09; for U7G G9U U10C U11G C12A C13A, 1.1. For U7A U8C U10A U11A C13U the value was 1.12; for U7A U8G G9C U10G U11C C12G C13U, 1.4; for U7G U8C G9U U10C U11C C12U C13G, 1.41. With U7C U8C G9U U10G U11C, the “aptazyme ON/OFF ratio” value is 1.39.

On to U8A G9A U10A U11C C12G C13G, for which the “aptazyme ON/OFF ratio” value was found to be 1.21. As to U7A U10A U11A C12U C13A, the “aptazyme ON/OFF ratio” value is 1.15. For U7A U8C G9A U10A C12A C13G the value was 1.22; for U7G U8G G9C U10A C12U, 1.02; for U8C G9A U10C C12A, 1.35.

Consider U7G U8G G9A U11C C13A, for which the “aptazyme ON/OFF ratio” value came out at 1.25.

Turning to U7A U8C G9A U10A C12G, the “aptazyme ON/OFF ratio” value stood at 1.24. For U8C G9A U10G U11C C12U C13G the value was 1.15. For U7G U8C G9C U10A C12U C13U the value was 1.04; for U7C U8G G9U U10G U11G C12G C13U, 1.25; for U7G U8C U10A U11A C12U C13G, 1.2. Take U7G U8C G9A U10A U11A C12A C13A: the “aptazyme ON/OFF ratio” value is 1.21. For U7A U8A G9U U11A C13U the value was 1.26; for U7G G9U U11A C12A C13U, 1.43; for U7G U8A U10A U11A, 2.2. Consider U7C U8C U10A U11G C12U C13G, for which the “aptazyme ON/OFF ratio” value was 1.15. For U8A G9A U10G U11C C12G the value was 1.2.

As for U7G U8G U11C C13U, the “aptazyme ON/OFF ratio” value was 1.25. For U7A G9U U10C U11A C12U C13U the value was 1.22; for U7G U8C U10A C12G C13A, 1.22; for U8C G9A U11A C13A, 1.2. For U10A U11G C12A C13G the value was 1.23; for U7G U8C G9C U10G U11A C12A C13G, 1.11; for U7C U8G G9C U10G U11A C12A C13U, 1.23. With U7A U8C U10A U11G C12U, the “aptazyme ON/OFF ratio” value was 1.27. Turning to U7C G9A U11A C12U, the “aptazyme ON/OFF ratio” value was 1.19. For U7G U8G G9C U10C U11A the value was 1.64; for U7C U8C U11A C13G, 1.19; for U8G G9A U11G C12G C13G, 1.57. For the variant U8A G9C U10G U11C C13A, the “aptazyme ON/OFF ratio” value stood at 1.11. For U7A U8C G9C U10G U11G C12U C13G the value was 1.1. Then U7A U8G G9A U10G C12U, with 1.21; and U8A G9C U11C C12A C13A, with 1.07. For U7G U8C G9U U11C C12G the value was 1.37; for U7G U8C G9A U10A C12A C13U, 1.2. In the case of U7A U8C U11C C12A C13U, the “aptazyme ON/OFF ratio” value was found to be 1.37. As to U8C G9C U10A U11C C12G C13G, the “aptazyme ON/OFF ratio” value was 1.16. With U7C U8C G9C U10A U11C C12G C13A, the “aptazyme ON/OFF ratio” value is 1.21.

In the case of U7C U8G G9C U10A U11C, the “aptazyme ON/OFF ratio” value stood at 1.03. Then U7G U8C U10G U11A C12A, with 1.15.

For the variant U7G U8C G9C U10A U11C C12U, the “aptazyme ON/OFF ratio” value is 1.32.

G9C U11C C13G: the “aptazyme ON/OFF ratio” value was found to be 1.03. On to U7G U8A G9A C13A, for which the “aptazyme ON/OFF ratio” value turned out to be 1.25. Then U7C U8C G9C U10C U11G C12G, with 1.13; and G9A U10C U11A C12U C13U, with 1.22; and U7G G9C U10A U11A C12U, with 1.65. For U7A U8A G9A U10G U11C C12A C13A the value was 1.17; for U7C U8A U10A U11C C13G, 1.04. Then U8G G9C U10G U11A C12A, with 1.17.

U8C U10C U11G C13G: the “aptazyme ON/OFF ratio” value amounted to 1.14. For U8C U11G C12U C13G the value was 1.07; for U11C C12G, 1.55. Turning to G9A C12A C13A, the “aptazyme ON/OFF ratio” value stood at 1.45.

With U7A G9C U10A U11G C12U C13G, the “aptazyme ON/OFF ratio” value is 1.07. On to U7G U8A G9U U10A U11A C12U C13U, for which the “aptazyme ON/OFF ratio” value turned out to be 1.06.

As to U7C G9C U10A U11C C12U C13G, the “aptazyme ON/OFF ratio” value is 1.03. For U7A U8C G9C U10C the value was 1.18; for U7A U8G G9U U10G U11C C13G, 1.07. Then U8A U10G U11A C12U, with 1.12; and U7C U8G G9A U11A C12A C13G, with 1.15; and U7G U8C U10G U11G C12U, with 1.43. For U7C U8A U10A U11G C12U C13U the value was 1.2; for U8G G9C U11C C12A C13G, 1.04. Consider U7A U8C G9A U10G C13A, for which the “aptazyme ON/OFF ratio” value was 1.17. Regarding G9A U10A U11A C12U C13G, the “aptazyme ON/OFF ratio” value came out at 1.3. Then U7C U8A U10G C12U, with 1.34; and U8C C13A, with 1.36.

In the case of U8C G9U U10C U11A C12G, the “aptazyme ON/OFF ratio” value came out at 1.17. Turning to U7A U8A G9C U11G C13A, the “aptazyme ON/OFF ratio” value amounted to 1.22. With G9A U11C C13U, the “aptazyme ON/OFF ratio” value came to 1.11. As to U7A U8A G9A U11G C12G, the “aptazyme ON/OFF ratio” value came out at 1.3. Regarding U7G U8C G9C U10G U11A C12A, the “aptazyme ON/OFF ratio” value was determined as 1.28. For U7G U8C G9C U10C U11C C12A C13A the value was 1.05; for U7A U8C G9A U10C C12U C13U, 1.26.
